Paper PMC9355583, “Validation of the solution structure of dimerization domain of PRC1” (PLoS ONE, 2022)

Target: the molecule itself
Assay: cross-linking; PEG5 cross-linker (0.1 M-1 M), protein at 20 nM and 50 nM, 50 mM PBS, 50 mM NaCl, pH 7.0, 25 °C, 30 min, read by SDS-PAGE

B1: PRC1 dimerization domain (PRC1-DD, aa: 1-65) (domain or fragment, human, UniProt O43663-1 1-65, looked up)
chain: MRRSEVLAEESIVCLQKALNHLREIWELIGIPEDQRLQRTEVVKKHIKELLDMMIAEEESLKERL
notes: Protein Regulator of Cytokinesis 1 (PRC1), human, isoform 1 (NP_003972; full length 620 residues), N-terminal dimerization domain, residues 1-65; Cloned between NdeI and XhoI of pET-21a with a C-terminal His-tag; no cleavage of the tag is described; For NMR the protein was 15N- or 15N/13C-labelled; also called DD WT; PRC-DD; source: E. coli BL21 (DE3) or Rosseta (DE3), purified (His-Trap HP, …)
stoichiometry N: 2
